By Kd is commonly meant the concentration at which binding is half-saturated. The term koff denotes a measure of how fast the partners let go of each other. Broadly, the kon is the rate constant with which the complex forms. For orientation: IC50 means the concentration needed to halve the response being measured.

These results are taken from patent US20100003258A1 (AVEO PHARMACEUTICALS, published 2010).

The target of assay [1] is T1, recombinant human FGFR3 IIIb Fc fusion protein (human, UniProt P22607-2 23-377, limits assumed).
T1 construct: Bought reagent; the IIIb splice isoform is meant; also called rhFGFR3 IIIb Fc; hFGFR3 IIIb; not shown: Fc fragment (removable by Factor Xa, detected with anti-human IgG)
T1 sequence (looked up): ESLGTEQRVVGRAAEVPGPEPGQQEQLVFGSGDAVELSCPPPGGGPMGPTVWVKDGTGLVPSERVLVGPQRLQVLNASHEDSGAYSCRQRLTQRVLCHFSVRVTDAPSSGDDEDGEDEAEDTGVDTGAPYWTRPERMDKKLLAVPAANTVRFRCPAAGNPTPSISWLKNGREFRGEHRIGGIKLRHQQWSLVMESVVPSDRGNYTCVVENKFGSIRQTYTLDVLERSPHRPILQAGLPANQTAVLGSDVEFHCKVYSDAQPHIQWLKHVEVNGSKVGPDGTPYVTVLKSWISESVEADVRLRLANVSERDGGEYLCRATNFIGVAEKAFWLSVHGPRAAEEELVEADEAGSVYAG
In words: SPR (Biacore T100), antibody captured on anti-mouse Ig, rhFGFR3 IIIb Fc as analyte, 25 C. The method, then: (§1) The binding affinities and kinetics of interaction of the monoclonal antibodies (15D8, 27H2, 2G4, and 4E7(7D12)) produced in Example 1 against recombinant human FGFR3 (IIIb and IIIc isoforms) Fc fusion protein (rhFGFR3 IIIb Fc or rhFGFR3 IIIc Fc) were measured by surface plasmon resonance using a Biacore™ T100 (Biacore) instrument.
(§2) Rabbit anti-mouse immunoglobulins (Biacore, Catalog No. BR-1005-14) were immobilized on carboxymethylated dextran CM4 sensor chips (Biacore, Catalog No. BR-1005-34) by amine coupling (Biacore, Catalog No. BR-1000-50) using a standard coupling protocol according to manufacturer's instructions.
(§3) The antibodies were captured in an individual flow cell at a flow rate of 10 μl/min. Injection time was varied for each antibody to yield approximately 40-50 RU of antibody captured for each cycle. Buffer or rhFGFR3 IIIb Fc (R&D Systems, Catalog No. 1264-FR-050) or rhFGFR3 IIIc Fc (R&D Systems, Catalog No. 766-FR-050) diluted in running buffer was injected sequentially over a reference surface (no antibody captured) and the active surface (antibody to be tested) for 300 sec at 60 μl/min. The dissociation phase was monitored for 30 minutes. The surface was then regenerated with two 60-seconds injection of 10 mM Glycine-HCl, pH 1.7 (made from Glycine pH 1.5 (Biacore, Catalog No. BR-1003-54) and pH 2.0 (Biacore, Catalog No. BR-1003-55)) at a flow rate of 60 μl/min. rhFGFR3 Fc concentrations tested were 0.62 nM to 40 nM.
On the technique in general: In SPR one partner is held on a chip, and binding of the other changes the refractive index at the surface.

Assay [2] deals with T2, recombinant human FGFR3 IIIc Fc fusion protein (human, UniProt P22607 23-375).
T2 construct: Bought reagent; also called rhFGFR3 IIIc Fc; not shown: Fc fragment (removable by Factor Xa)
T2 sequence (looked up): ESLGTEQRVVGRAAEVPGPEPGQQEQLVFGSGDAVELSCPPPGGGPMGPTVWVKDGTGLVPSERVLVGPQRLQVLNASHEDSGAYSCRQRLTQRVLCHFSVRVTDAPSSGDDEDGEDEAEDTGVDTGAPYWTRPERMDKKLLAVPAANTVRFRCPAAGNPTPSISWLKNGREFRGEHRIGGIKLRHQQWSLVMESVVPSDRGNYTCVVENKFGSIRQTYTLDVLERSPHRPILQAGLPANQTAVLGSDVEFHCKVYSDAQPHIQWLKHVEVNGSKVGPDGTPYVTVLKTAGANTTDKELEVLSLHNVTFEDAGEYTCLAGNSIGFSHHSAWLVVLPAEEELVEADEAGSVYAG
Description: SPR (Biacore T100), antibody captured on anti-mouse Ig, rhFGFR3 IIIc Fc as analyte, 25 C. Here is the method:
as §1, §2, §3

Assay [3] has as its target T2, recombinant human FGFR3 IIIc Fc fusion …. Description: SPR (Biacore T100), antibody captured on anti-mouse Ig, rhFGFR3 IIIc Fc as analyte, 37 C. Here is the method:
as §1, §2, §3

The target of assay [4] is T1, recombinant human FGFR3 IIIb Fc fusion …. In words: ECL competition assay: inhibition of rhFGFR3 IIIb Fc binding to coated FGF1 (competitor FGF1). The method, then: (§4) The antibodies were tested by ECL (Electrochemiluminescence) assay for inhibition of hFGFR3 IIIB binding to FGF-1. […] The plates then were washed 3 times with PBS and blocked with 200 μl of PBS containing 5% BSA (Sera Care Life Sciences, Catalog No. AP-4510-80) and 5 μg/mL heparin (Sigma, Catalog No. H4784) for 1 hour at room temperature. The antibodies (concentration range: 0.029-30 μg/mL) were incubated for 1 hour at room temperature with 1.7 μg/mL rhFGFR3 IIIb Fc (R&D Systems, Catalog No. 1264-FR-050) and 5 μg/mL heparin. After washing the plates 3 times with PBS, 25 μl of the antibody-receptor mixture was added to the plates for another hour at room temperature with agitation. The plates were washed three times with PBS and incubated with 25 μl of 1 μg/mL ST-anti-human IgG antibody (Meso Scale Discovery, Catalog No. R32AJ-1) for 1 hour at room temperature with agitation. The plates then were washed 3 times with PBS, and 150 μl of 1× read buffer (Meso Scale Discovery, Catalog No. R92TC-1) was added to each well before the plates were analyzed on a Sector Imager 2400 (Meso Scale Discovery) instrument.

Assay [5] shares this target. Description: ECL competition assay: inhibition of rhFGFR3 IIIb Fc binding to coated FGF1 (competitor FGF1); 15D8 IgG1, not Fab; average of n = 3. Here is the method:
as §4

B1: anti-FGFR3 monoclonal antibody 15D8 (antibody, mouse IgG1, kappa)
heavy: EIQLQQSGPELVKPGASVKVSCKASGYAFTSYNMYWVKQSHGKSLEWIGYIDPYNGGTSYNQKFKGKATLTVDKSSSTAYMHLNSLTSEDSAVYYCAREGGNYEAWFAYWGQGTLVTVSAAKTTPPSVYPLAPGSAAQTNSMVTLGCLVKGYFPEPVTVTWNSGSLSSGVHTFPAVLQSDLYTLSSSVTVPSSTWPSETVTCNVAHPASSTKVDKKIVPRDCGCKPCICTVPEVSSVFIFPPKPKDVLTITLTPKVTCVVVDISKDDPEVQFSWFVDDVEVHTAQTQPREEQFNSTFRSVSELPIMHQDWLNGKEFKCRVNSAAFPAPIEKTISKTKGRPKAPQVYTIPPPKEQMAKDKVSLTCMITDFFPEDITVEWQWNGQPAENYKNTQPIMDTDGSYFVYSKLNVQKSNWEAGNTFTCSVLHEGLHNHHTEKSLSHSPGK
light: QIVLTQSPALMSASPGEKVTMTCSASSSVSYMYWYQQKPRSSPKPWIYLTSYLASGVPARFSGSGSGTSYSLTISSMEAEDAATYYCQQWSSYPLTFGAGTKLELKRADAAPTVSIFPPSSEQLTSGGASVVCFLNNFYPKDINVKWKIDGSERQNGVLNSWTDQDSKDSTYSMSSTLTLTKDEYERHNSYTCEATHKTSTSPIVKSFNRNEC
notes: also called 15D8 IgG1; murine antibody 15D8
Take B1: the Kd in assay [1] worked out at 2.6 nM; in assay [2] it was 2.2 nM; in assay [3] it was 1.8 nM. In addition, the koff in assay [1] was 0.00033 s⁻¹; in assay [2], 0.0002 s⁻¹; in assay [3], 0.00018 s⁻¹. The kon in assay [1] turned out to be 200000 M⁻¹ s⁻¹; in assay [2], 93000 M⁻¹ s⁻¹; in assay [3] it was 120000 M⁻¹ s⁻¹. For the same molecule, the “Maximum Neutralization (%)” value in assay [4] was found to be 80.5%. For the same molecule, the IC50 in assay [5] turned out to be 15.4 nM.
